How the values were obtained:
[1] = target: human transferrin receptor expressed by nonhematopoietic cancer cells (human) (UniProt P02786); assay: FACS, Kato III cells, 1/5X
[2] = target: T1, human transferrin receptor expressed by normal human cells (RBC, PMN, lymphocytes, monocytes, platelets, … (human, UniProt P02786 1-760)); assay: FACS, RBC, donor D005, 1/10x
T1 construct: The assay is whole-cell FACS on normal donor cells; also called TfR on normal cells
Method: (§1) The hyper-immuned serum (Hyp-serum) or the corresponding cell marker antibodies for certain cell types were included as positive controls.
(§2) 1×10⁵ cells were seeded in each well of a v-bottomed 96-well plate and incubated with 50 μl of hybridoma culture supernatant at 1× and 10× dilution, or isotype control antibody mouse IgM, κ (BD™, Cat. No. 557275) at concentration of 1 μg/ml. A 300× dilution of human cell hyper-immune serum was used as binding positive control for all cell types. PE-conjugated anti-human CD41a (Southern Biotech™, Cat. No. 9391-09) was used as a positive control for staining human platelets. Anti-sialyl Lewis x antibody (Millipore™, Cat. No. MAB2096) was used as a positive control for staining human PMN. Anti-human CD31 (Hycult™, Cat. No. HM2039) was used as a positive control for staining HUVEC. After 30 minutes incubation at 4° C., cells were washed twice with 200 μl FACS buffer (1×PBS containing 1% FBS), stained with 50 μl of 1 μg/ml goat F(ab′)2-anti-mouse IgG(H+L)-PE (Southern Biotech™, Cat. No. 1032-09) or 1 μg/ml goat F(ab′)2-anti-mouse IgM(H+L)-PE (Southern Biotech™, Cat. No. 1022-09) in FACS buffer. After 30 minutes of incubation at 4° C., cells were washed twice with FACS buffer and analyzed by flow cytometry (BD LSR, BD Life Sciences).

[3] = target: T1, human transferrin receptor expressed by …; assay: FACS, platelets, donor D014, 1/10x
Method: as §1, §2

[4] = target: T1, human transferrin receptor expressed by …; assay: FACS, lymphocytes, donor D005, 1/10x
Method: (§3) Preparation of PBMC and PMN: The whole blood was diluted with an equal volume of PBS and mixed with 1/10 volume of 15% Dextran solution. […] After centrifugation at 2200 rpm for 15 min (rotor: SORVALL, PN11788 and centrifuge: SORVALL, RT7), PBMC concentrated in the interface, were collected and washed with large volumes of FACS buffer (2% FBS in PBS) for future use. The PMN-rich pellet was collected, from which residual RBC was removed by hypotonic lysis in 0.2% NaCl.
as §2

[5] = target: T1, human transferrin receptor expressed by …; assay: FACS, platelets, donor D016, 1/10x
Method: as §1, §2

[6] = target: human transferrin receptor expressed by nonhematopoietic cancer cells (human) (UniProt P02786); assay: FACS, Panc02.03B cells, 1/5X
[7] = target: human transferrin receptor expressed by nonhematopoietic cancer cells (human) (UniProt P02786); assay: FACS, MDA-MB-453 cells, 1/5X
[8] = target: T1, human transferrin receptor expressed by …; assay: FACS, lymphocytes, donor D014, 1x
Method: as §3, §2

[9] = target: T1, human transferrin receptor expressed by …; assay: FACS, PMN, donor D016, 1x
Method: as §3, §2

[10] = target: T1, human transferrin receptor expressed by …; assay: FACS, PMN, donor D005, 1/10x
Method: as §3, §2

[11] = target: T1, human transferrin receptor expressed by …; assay: FACS, HUVEC, 1/10x
Method: as §1, §2

[12] = target: T1, human transferrin receptor expressed by …; assay: FACS, platelets, donor D005, 1x
Method: as §1, §2

[13] = target: T1, human transferrin receptor expressed by …; assay: FACS, lymphocytes, donor D102, 1x
Method: as §3, §2

[14] = target: T1, human transferrin receptor expressed by …; assay: FACS, platelets, donor D016, 1x
Method: as §1, §2

[15] = target: T1, human transferrin receptor expressed by …; assay: FACS, platelets, donor D102, 1x
Method: as §1, §2

[16] = target: human transferrin receptor expressed by nonhematopoietic cancer cells (human) (UniProt P02786); assay: FACS, H358 cells, 1X
[17] = target: T1, human transferrin receptor expressed by …; assay: FACS, lymphocytes, donor D016, 1x
Method: as §1, §2

[18] = target: T1, human transferrin receptor expressed by …; assay: FACS, monocytes, donor D005, 1x
Method: as §3, §2

[19] = target: T1, human transferrin receptor expressed by …; assay: FACS, platelets, donor D014, 1x
Method: as §1, §2

Chain of human transferrin receptor expressed by nonhematopoietic cancer cells (human) (P02786 whole entry G142S): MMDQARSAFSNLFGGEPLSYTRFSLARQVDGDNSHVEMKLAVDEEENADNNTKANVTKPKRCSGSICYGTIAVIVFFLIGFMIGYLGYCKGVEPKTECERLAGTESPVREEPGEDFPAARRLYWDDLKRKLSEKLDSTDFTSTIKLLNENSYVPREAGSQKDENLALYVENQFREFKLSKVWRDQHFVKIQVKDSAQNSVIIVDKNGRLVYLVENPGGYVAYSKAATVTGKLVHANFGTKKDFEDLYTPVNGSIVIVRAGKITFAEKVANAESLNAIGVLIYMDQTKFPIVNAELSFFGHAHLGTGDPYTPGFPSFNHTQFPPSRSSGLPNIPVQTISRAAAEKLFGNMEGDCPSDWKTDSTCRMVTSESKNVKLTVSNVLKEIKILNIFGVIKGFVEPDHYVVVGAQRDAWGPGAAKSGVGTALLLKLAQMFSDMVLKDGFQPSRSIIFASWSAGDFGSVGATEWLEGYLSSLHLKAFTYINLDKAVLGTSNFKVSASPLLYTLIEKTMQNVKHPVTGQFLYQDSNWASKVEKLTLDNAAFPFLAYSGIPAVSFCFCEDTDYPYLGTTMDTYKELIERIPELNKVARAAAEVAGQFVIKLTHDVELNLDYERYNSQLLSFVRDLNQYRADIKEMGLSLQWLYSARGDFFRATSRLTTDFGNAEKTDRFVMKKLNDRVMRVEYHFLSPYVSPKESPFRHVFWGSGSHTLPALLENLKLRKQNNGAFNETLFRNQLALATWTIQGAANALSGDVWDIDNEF
T1 sequence (P02786 whole entry G142S): as above

| MFI [1] | % positive cell binding [2] | % positive cell binding [3] | % positive cell binding [4] | % positive cell binding [5] | MFI [6] | MFI [7] | % positive cell binding [8] | % positive cell binding [9] | % positive cell binding [10] | % positive cell binding [11] | % positive cell binding [12] | % positive cell binding [13] | % positive cell binding [14] | % positive cell binding [15] | MFI [16] | % positive cell binding [17] | % positive cell binding [18] | % positive cell binding [19] | Binder |
| --- | --- | --- | --- | --- | --- | --- | --- | --- | --- | --- | --- | --- | --- | --- | --- | --- | --- | --- | --- |
| 97 MFI | < 1% | < 1% | 2% | < 1% | 314 MFI | 65 MFI | 1% | < 1% | 1% | 3% | < 1% | < 1% | < 1% | < 1% | 234 MFI | 1% | 4% | < 1% | antibody 55-31 (antibody, mouse IgM, V domains shown, Mouse IgM, kappa from a hybridoma; tested as hybridoma culture supernatant) VH: QVQLQQPGAELVKPGTSVKLSCKASGYNFTSYWINWVKLRPGQGLEWIGDIYPGSGSTNYNEKFKSKATLTVDTSSSTAYMQLSSLASEDSALYYCARSAYRYDWFAYWGQGTLVTVSA VL: DIQMTQSPASLSVSVGETVTITCRASENIYSNLAWYQQKQGKSPQLLVYAATNLADGVPSRFSGSGSGTQYSLKINSLQSEDFGSYYCQHFWGTPYTFGGGTKLEIKR |
| 724 MFI | < 1% | < 1% | 1% | < 1% | 4670 MFI | 16 MFI | < 1% | < 1% | < 1% | 1% | < 1% | < 1% | < 1% | < 1% | 942 MFI | < 1% | 2% | < 1% | antibody 122-72 (antibody, V domains shown, Mouse IgM, kappa from a hybridoma; tested as hybridoma culture supernatant; Antibody 60-43 is said to have the same CDRs) VH: EVQLVESGGGLVQPKGSLKLSCAASGFTFNTYAMNWVRQAPGKGLEWVARIRSKSNNYATYYADSVKDRFTISRDDSQSMLYLQMNNLKTEDTAMYYCVAYGSRNYWGQGTTLTVSS VL: DIVMTQSPSSLTVTAGEKVTMSCKSSQSLLNSGNQKNYLTWYQQKPGQPPKLLIYWASTRESGVPDRFTGSGSGTDFTLTISSVQAEDLAVYYCQNDYSYPYTFGGGTKLEIKR |
| 1250 MFI | < 1% | < 1% | 3% | < 1% | 4910 MFI | 141 MFI | 1% | 1% | < 1% | 1% | < 1% | < 1% | < 1% | < 1% | 823 MFI | 1% | 2% | < 1% | antibody 6-90 (antibody, mouse IgM, V domains shown, Mouse IgM, kappa from a hybridoma; tested as hybridoma culture supernatant) VH: EVELQQFGIEMVKPGASVKISCKASGYIFTDYHMDWVRQSHGKSLEWIGDIDPKYDRVTYNQKFKGKASLTADKSSSTAYMELRSLTSEDTAVYYCAKTGAYGDYLAYWGQGTLVTVSA VL: DLVMTQTPLSLPVSLGDQASISCRSSQSLVHSDGNTYFYWYLQKPGQSPKLLIYKVSNRFSGVPDRFSAGGSGTYFTLKISRVEAEDLGVYFCSQTTHFPPTFGGGTKLEIKR |

From US20130177579A1 (BIOALLIANCE C V, published 2013)
